Source: the supplement of paper PMC5998384

What was measured:
HeLa Kyoto [1] = assay: melting temperature (median over replicates), in situ; higher = more thermally stable
HeLa Kyoto [2] = assay: solubility in G1/S (NP-40 vs SDS abundance) (log2 ratio); higher = more soluble; conditions: cell cycle stage: G1/S
HeLa Kyoto [3] = assay: solubility change mitosis vs G1/S (difference of NP-40 vs SDS log2 ratios) (log2 ratio difference); higher = more soluble in mitosis
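Wherever melting temperature (median over replicates), in situ is given: HeLa Kyoto cells synchronized by double thymidine or nocodazole block, proteins quantified by TMT10plex mass spectrometry, three independent biological replicates.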
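Wherever solubility change mitosis vs G1/S (difference of NP-40 vs SDS log2 ratios) is given: synchronized HeLa Kyoto cells (double thymidine block for G1/S, nocodazole release for mitosis), protein amounts in NP-40 versus SDS lysates quantified by mass spectrometry, three biological replicates.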
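Wherever solubility in G1/S (NP-40 vs SDS abundance) is given: HeLa Kyoto cells arrested at G1/S by double thymidine block, proteins quantified by TMT10plex mass spectrometry in mild NP-40 versus SDS extracts, three biological replicates.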

For “MASRRKSTTPCMVLASEQDPDLELISDLDEGPPVLTPVENTRAESISSDEEVHESVDSDNQQNKKVEGGYECKYCTFQTPDLNMFTFHVDSEHPNVVLNSSYVCVECNFLTKRYDALSEHNLKYHPGEENFKLTMVKRNNQTIFEQTINDLTFDGSFVKEENAEQAESTEVSSSGISISKTPIMKMMKNKVENKRIAVHHNSVEDVPEEKENEIKPDREEIVENPSSSASESNTSTSIVNRIHPSTASTVVTPAAVLPGLAQVITAVSAQQNSNLIPKVLIPVNSIPTYNAALDNNPLLLNTYNKFPYPTMSEITVLSAQAKYTEEQIKIWFSAQRLKHGVSWTPEEVEEARRKQFNGTVHTVPQTITVIPTHISTGSNGLPSILQTCQIVGQPGLVLTQVAGTNTLPVTAPIALTVAGVPSQNNIQKSQVPAAQPTAETKPATAAVPTSQSVKHETALVNPDSFGIRAKKTKEQLAELKVSYLKNQFPHDSEIIRLMKITGLTKGEIKKWFSDTRYNQRNSKSNQCLHLNNDSSTTIIIDSSDETTESPTVGTAQPKQSWNPFPDFTPQKFKEKTAEQLRVLQASFLNSSVLTDEELNRLRAQTKLTRREIDAWFTEKKKSKALKEEKMEIDESNAGSSKEEAGETSPADESGAPKSGSTGKICKKTPEQLHMLKSAFVRTQWPSPEEYDKLAKESGLARTDIVSWFGDTRYAWKNGNLKWYYYYQSANSSSMNGLSSLRKRGRGRPKGRGRGRPRGRPRGSKRINNWDRGPSLIKFKTGTAILKDYYLKHKFLNEQDLDELVNKSHMGYEQVREWFAERQRRSELGIELFEENEEEDEVIDDQEEDEEETDDSDTWEPPRHVKRKLSKSDD [ZHX1]”, the melting temperature (HeLa Kyoto [1]; cell cycle stage: G1/S) was 48.3 °C, the melting temperature (HeLa Kyoto [1]; cell cycle stage: mitosis) was 48.9 °C and the “solubility in G1/S (log2)” value (HeLa Kyoto [2]) was 0.0738. For the same sequence, the “solubility change mitosis (log2)” value (HeLa Kyoto [3]) was -0.162.
With “MASYYEILDVPRSASADDIKKAYRRKALQWHPDKNPDNKEFAEKKFKEVAEAYEVLSDKHKREIYDRYGREGLTGTGTGPSRAEAGSGGPGFTFTFRSPEEVFREFFGSGDPFAELFDDLGPFSELQNRGSRHSGPFFTFSSSFPGHSDFSSSSFSFSPGAGAFRSVSTSTTFVQGRRITTRRIMENGQERVEVEEDGQLKSVTINGVPDDLALGLELSRREQQPSVTSRSGGTQVQQTPASCPLDSDLSEDEDLQLAMAYSLSEMEAAGKKPAGGREAQHRRQGRPKAQHQDPGLGGTQEGARGEATKRSPSPEEKASRCLIL [DNAJB2]” the melting temperature (HeLa Kyoto [1]; cell cycle stage: G1/S) was 50.2 °C, the melting temperature (HeLa Kyoto [1]; cell cycle stage: mitosis) was 50.5 °C and the “solubility in G1/S (log2)” value (HeLa Kyoto [2]) was 0.0895. The “solubility change mitosis (log2)” value (HeLa Kyoto [3]) was 0.274.
For “MATQAHSLSYAGCNFLRQRLVLSTLSGRPVKIRKIRARDDNPGLRDFEASFIRLLDKITNGSRIEINQTGTTLYYQPGLLYGGSVEHDCSVLRGIGYYLESLLCLAPFMKHPLKIVLRGVTNDQVDPSVDVLKATALPLLKQFGIDGESFELKIVRRGMPPGGGGEVVFSCPVRKVLKPIQLTDPGKIKRIRGMAYSVRVSPQMANRIVDSARSILNKFIPDIYIYTDHMKGVNSGKSPGFGLSLVAETTSGTFLSAELASNPQGQGAAVLPEDLGRNCARLLLEEIYRGGCVDSTNQSLALLLMTLGQQDVSKVLLGPLSPYTIEFLRHLKSFFQIMFKIETKPCGEELKGGDKVLMTCVGIGFSNLSKTLK [RCL1]”, the melting temperature (HeLa Kyoto [1]; cell cycle stage: G1/S) was 52.4 °C, the melting temperature (HeLa Kyoto [1]; cell cycle stage: mitosis) was 52.3 °C and the “solubility in G1/S (log2)” value (HeLa Kyoto [2]) was -1.92. For the same sequence, the “solubility change mitosis (log2)” value (HeLa Kyoto [3]) was 0.888.
With “MAVAIAAARVWRLNRGLSQAALLLLRQPGARGLARSHPPRQQQQFSSLDDKPQFPGASAEFIDKLEFIQPNVISGIPIYRVMDRQGQIINPSEDPHLPKEKVLKLYKSMTLLNTMDRILYESQRQGRISFYMTNYGEEGTHVGSAAALDNTDLVFGQYREAGVLMYRDYPLELFMAQCYGNISDLGKGRQMPVHYGCKERHFVTISSPLATQIPQAVGAAYAAKRANANRVVICYFGEGAASEGDAHAGFNFAATLECPIIFFCRNNGYAISTPTSEQYRGDGIAARGPGYGIMSIRVDGNDVFAVYNATKEARRRAVAENQPFLIEAMTYRIGHHSTSDDSSAYRSVDEVNYWDKQDHPISRLRHYLLSQGWWDEEQEKAWRKQSRRKVMEAFEQAERKPKPNPNLLFSDVYQEMPAQLRKQQESLARHLQTYGEHYPLDHFDK [BCKDHA]” the melting temperature (HeLa Kyoto [1]; cell cycle stage: G1/S) was 52.2 °C, the melting temperature (HeLa Kyoto [1]; cell cycle stage: mitosis) was 52.2 °C and the “solubility in G1/S (log2)” value (HeLa Kyoto [2]) was 0.0962. For the same sequence, the “solubility change mitosis (log2)” value (HeLa Kyoto [3]) was -0.0598.
With “MDDKAFTKELDQWVEQLNECKQLNENQVRTLCEKAKEILTKESNVQEVRCPVTVCGDVHGQFHDLMELFRIGGKSPDTNYLFMGDYVDRGYYSVETVTLLVALKVRYPERITILRGNHESRQITQVYGFYDECLRKYGNANVWKYFTDLFDYLPLTALVDGQIFCLHGGLSPSIDTLDHIRALDRLQEVPHEGPMCDLLWSDPDDRGGWGISPRGAGYTFGQDISETFNHANGLTLVSRAHQLVMEGYNWCHDRNVVTIFSAPNYCYRCGNQAAIMELDDTLKYSFLQFDPAPRRGEPHVTRRTPDYFL [PPP2CB]” the melting temperature (HeLa Kyoto [1]; cell cycle stage: G1/S) was 45.7 °C, the melting temperature (HeLa Kyoto [1]; cell cycle stage: mitosis) was 54.8 °C and the “solubility in G1/S (log2)” value (HeLa Kyoto [2]) was 0.0545. For the same sequence, the “solubility change mitosis (log2)” value (HeLa Kyoto [3]) was -0.00731.
For “MDEERALYIVRAGEAGAIERVLRDYSDKHRATFKFESTDEDKRKKLCEGIFKVLIKDIPTTCQVSCLEVLRILSRDKKVLVPVTTKENMQILLRLAKLNELDDSLEKVSEFPVIVESLKCLCNIVFNSQMAQQLSLELNLAAKLCNLLRKCKDRKFINDIKCFDLRLLFLLSLLHTDIRSQLRYELQGLPLLTQILESAFSIKWTDEYESAIDHNGPPLSPQETDCAIEALKALFNVTVDSWKVHKESDSHQFRVMAAVLRHCLLIVGPTEDKTEELHSNAVNLLSNVPVSCLDVLICPLTHEETAQEATTLDELPSNKTAEKETVLKNNTMVYNGMNMEAIHVLLNFMEKRIDKGSSYREGLTPVLSLLTECSRAHRNIRKFLKDQVLPPLRDVTNRPEVGSTVRNKLVRLMTHVDLGVKQIAAEFLFVLCKERVDSLLKYTGYGNAAGLLAARGLLAGGRGDNWYSEDEDTDTEEYKNAKPKEELLKPMGLKPDGTITPLEEALNQYSVIEETSSDTD [RIC8B]”, the melting temperature (HeLa Kyoto [1]; cell cycle stage: G1/S) was 49.4 °C, the melting temperature (HeLa Kyoto [1]; cell cycle stage: mitosis) was 49.8 °C and the “solubility in G1/S (log2)” value (HeLa Kyoto [2]) was -0.00976. For the same sequence, the “solubility change mitosis (log2)” value (HeLa Kyoto [3]) was -0.194.
With “MDNRFATAFVIACVLSLISTIYMAASIGTDFWYEYRSPVQENSSDLNKSIWDEFISDEADEKTYNDALFRYNGTVGLWRRCITIPKNMHWYSPPERTESFDVVTKCVSFTLTEQFMEKFVDPGNHNSGIDLLRTYLWRCQFLLPFVSLGLMCFGALIGLCACICRSLYPTIATGILHLLAGLCTLGSVSCYVAGIELLHQKLELPDNVSGEFGWSFCLACVSAPLQFMASALFIWAAHTNRKEYTLMKAYRVA [CLDND1]” the melting temperature (HeLa Kyoto [1]; cell cycle stage: mitosis) was 58.6 °C, the “solubility in G1/S (log2)” value (HeLa Kyoto [2]) was -0.395 and the “solubility change mitosis (log2)” value (HeLa Kyoto [3]) was 0.186.
“MDPLFQQTHKQVHEIQSCMGRLETADKQSVHIVENEIQASIDQIFSRLERLEILSSKEPPNKRQNARLRVDQLKYDVQHLQTALRNFQHRRHAREQQERQREELLSRTFTTNDSDTTIPMDESLQFNSSLQKVHNGMDDLILDGHNILDGLRTQRLTLKGTQKKILDIANMLGLSNTVMRLIEKRAFQDKYFMIGGMLLTCVVMFLVVQYLT [GOSR2]” was tested, and the melting temperature (HeLa Kyoto [1]; cell cycle stage: G1/S) was 51.8 °C, the melting temperature (HeLa Kyoto [1]; cell cycle stage: mitosis) was 51.4 °C and the “solubility in G1/S (log2)” value (HeLa Kyoto [2]) was 0.00468. The “solubility change mitosis (log2)” value (HeLa Kyoto [3]) was 0.0667.
“MDTAEDPAWLQLLQKDSSPPGPRPTAFFCPQDGSLGAGSSAMRDYCPSQQKASPAPPRHTPDQSPGMESRHRSPSGAGEGASCSDGPRGSLACPSPTCFSPQESPSKETLEAHGASISGTPEATTSGKPEPVSSVKTEPKSSDDRNPMFLEKMDFKSSKQADSTSIGKEDPGSSRKADPMFTGKAEPEILGKGDPVAPGRMDPMTVRKEDLGSLGKVDPLCSSKTYTVSPRKEDPGSLRKVDPVSSDKVDPVFPRKEEPRYSGKEHPVSSEKVAPTSAEKVDLVLSGKRDPGPSGKADPMPLESMDSASTGKTEPGLLGKLIPGSSGKNGPVSSGTGAPGSLGRLDPTCLGMADPASVGNVETVPATKEDSRFLGKMDPASSGEGRPVSGHTDTTASAKTDLTSLKNVDPMSSGKVDPVSLGKMDPMCSGKPELLSPGQAERVSVGKAGTVSPGKEDPVSSRREDPISAGSRKTSSEKVNPESSGKTNPVSSGPGDPRSLGTAGPPSAVKAEPATGGKGDPLSSEKAGLVASGKAAPTASGKAEPLAVGKEDPVSKGKADAGPSGQGDSVSIGKVVSTPGKTVPVPSGKVDPVSLGKAEAIPEGKVGSLPLEKGSPVTTTKADPRASGKAQPQSGGKAETKLPGQEGAAAPGEAGAVCLKKETPQASEKVDPGSCRKAEPLASGKGEPVSLGKADSAPSRKTESPSLGKVVPLSLEKTKPSSSSRQLDRKALGSARSPEGARGSEGRVEPKAEPVSSTEASSLGQKDLEAAGAERSPCPEAAAPPPGPRTRDNFTKAPSWEASAPPPPREDAGTQAGAQACVSVAVSPMSPQDGAGGSAFSFQAAPRAPSPPSRRDAGLQVSLGAAETRSVATGPMTPQAAAPPAFPEVRVRPGSALAAAVAPPEPAEPVRDVSWDEKGMTWEVYGAAMEVEVLGMAIQKHLERQIEEHGRQGAPAPPPAARAGPGRSGSVRTAPPDGAAKRPPGLFRALLQSVRRPRCCSRAGPTAE [GPRIN1]” was tested, and the melting temperature (HeLa Kyoto [1]; cell cycle stage: G1/S) was 54.4 °C, the melting temperature (HeLa Kyoto [1]; cell cycle stage: mitosis) was 53.5 °C and the “solubility in G1/S (log2)” value (HeLa Kyoto [2]) was 0.2. The “solubility change mitosis (log2)” value (HeLa Kyoto [3]) was -0.114.
